Data taken from patent US12421510B2, “Peptide, a complex and a method for treating cancer” (TECHNION RESEARCH & DEVELOPMENT FOUNDATION LIMITED, priority 2018, dated 2025).

T1: p105 (Homo sapiens, UniProt P19838)
T1 sequence (P19838 1-968): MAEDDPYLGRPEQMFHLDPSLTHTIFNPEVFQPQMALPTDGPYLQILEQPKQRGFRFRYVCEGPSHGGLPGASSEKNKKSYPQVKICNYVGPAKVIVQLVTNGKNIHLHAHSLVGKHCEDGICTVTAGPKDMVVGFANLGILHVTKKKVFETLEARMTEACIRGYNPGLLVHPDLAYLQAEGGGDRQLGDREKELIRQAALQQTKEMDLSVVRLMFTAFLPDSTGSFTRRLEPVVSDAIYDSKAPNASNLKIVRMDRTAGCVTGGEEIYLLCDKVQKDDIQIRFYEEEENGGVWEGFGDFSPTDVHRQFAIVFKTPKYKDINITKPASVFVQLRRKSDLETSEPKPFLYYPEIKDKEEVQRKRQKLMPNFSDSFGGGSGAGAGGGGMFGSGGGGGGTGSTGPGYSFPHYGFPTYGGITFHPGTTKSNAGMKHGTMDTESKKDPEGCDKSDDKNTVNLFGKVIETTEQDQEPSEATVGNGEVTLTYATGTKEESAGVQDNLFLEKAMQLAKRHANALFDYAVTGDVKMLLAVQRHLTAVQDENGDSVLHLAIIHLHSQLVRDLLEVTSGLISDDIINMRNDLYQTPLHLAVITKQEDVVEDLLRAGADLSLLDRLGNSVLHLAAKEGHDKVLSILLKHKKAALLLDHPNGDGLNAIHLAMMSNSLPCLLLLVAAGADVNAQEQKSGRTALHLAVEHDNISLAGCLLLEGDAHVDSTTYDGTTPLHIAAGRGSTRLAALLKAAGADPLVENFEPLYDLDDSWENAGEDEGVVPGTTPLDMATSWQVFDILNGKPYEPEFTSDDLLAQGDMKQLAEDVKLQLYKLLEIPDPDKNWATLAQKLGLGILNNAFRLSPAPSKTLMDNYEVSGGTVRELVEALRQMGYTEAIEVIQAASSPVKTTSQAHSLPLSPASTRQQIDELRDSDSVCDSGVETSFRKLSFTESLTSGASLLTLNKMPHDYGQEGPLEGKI

B1: WILVRLW-KPC1-Δ1-1039: truncated KPC1 with the 7 amino acid sequence brought closer to RING domain, SEQ ID NO: 6 (protein)
chain: WILVRLWAFSEFIGMIQEIQQAAERLERNFVDSRQLKVCATCFDLSVSLLRVLEMTITLVPEIFLDWTRPTSEMLLRRLAQLLNQVLNRVTAERNLFDRVVTLRLPGLESVDHYPILVAVTGILVQLLVRGPASEREQATSVLLADPCFQLRSICYLLGQPEPPAPGTALPAPDRKRFSLQSYADYISADELAQVEQMLAHLTSASAQAAAASLPTSEEDLCPICYAHPISAVFQPCGHKSCKACINQHLMNNKDCFFCKTTIVSVEDWEKGANTSTTSSAA
B2: KPC1: wild-type ubiquitin ligase KPC1 (RNF123), SEQ ID NO: 2 (protein)
chain: MASKGAGMSFSRKSYRLTSDAEKSRVTGIVQEKLLNDYLNRIFSSSEHAPPAATSRKPLNFQNLPEHLDQLLQVDNEEEESQGQVEGRLGPSTVVLDHTGGFEGLLLVDDDLLGVIGHSNFGTIRSTTCVYKGKWLYEVLISSQGLMQIGWCTISCRFNQEEGVGDTHNSYAYDGNRVRKWNVTTTNYGKAWAAGDIVSCLIDLDDGTLSFCLNGVSLGTAFENLSRGLGMAYFPAISLSFKESVAFNFGSRPLRYPVAGYRPLQDPPSADLVRAQRLLGCFRAVLSVELDPVEGRLLDKESSKWRLRGQPTVLLTLAHIFHHFAPLLRKVYLVEAVLMSFLLGIVEKGTPTQAQSVVHQVLDLLWLFMEDYEVQDCLKQLMMSLLRLYRFSPIVPDLGLQIHYLRLTIAILRHEKSRKFLLSNVLFDVLRSVVFFYIKSPLRVEEAGLQELIPTTWWPHCSSREGKESTEMKEETAEERLRRRAYERGCQRLRKRIEVVEELQVQILKLLLDNKDDNGGEASRYIFLTKFRKFLQENASGRGNMPMLCPPEYMVCFLHRLISALRYYWDEYKASNPHASFSEEAYIPPQVFYNGKVDYFDLQRLGGLLSHLRKTLKDDLASKANIVIDPLELQSTAMDDLDEDEEPAPAMAQRPMQALAVGGPLPLPRPGWLSSPTLGRANRFLSTAAVSLMTPRRPLSTSEKVKVRTLSVEQRTREDIEGSHWNEGLLLGRPPEEPEQPLTENSLLEVLDGAVMMYNLSVHQQLGKMVGVSDDVNEYAMALRDTEDKLRRCPKRRKDILAELTKSQKVFSEKLDHLSRRLAWVHATVYSQEKMLDIYWLLRVCLRTIEHGDRTGSLFAFMPEFYLSVAINSYSALKNYFGPVHSMEELPGYEETLTRLAAILAKHFADARIVGTDIRDSLMQALASYVCYPHSLRAVERIPEEQRIAMVRNLLAPYEQRPWAQTNWILVRLWRGCGFGYRYTRLPHLLKTKLEDANLPSLQKPCPSTLLQQHMADLLQQGPDVAPSFLNSVLNQLNWAFSEFIGMIQEIQQAAERLERNFVDSRQLKVCATCFDLSVSLLRVLEMTITLVPEIFLDWTRPTSEMLLRRLAQLLNQVLNRVTAERNLFDRVVTLRLPGLESVDHYPILVAVTGILVQLLVRGPASEREQATSVLLADPCFQLRSICYLLGQPEPPAPGTALPAPDRKRFSLQSYADYISADELAQVEQMLAHLTSASAQAAAASLPTSEEDLCPICYAHPISAVFQPCGHKSCKACINQHLMNNKDCFFCKTTIVSVEDWEKGANTSTTSSAA

Tests used:
p105 [1] = target: T1, p105; assay: Ubiquitination of p105 by purified KPC1 species in cell-free conjugation assay; assay type: biochemical; details: reconstituted cell-free system, in vitro translated 35S-labeled p105, purified Ub, E1, E2, UbAl, ATP
Description: FIGS. 4A and 4B represent western blots showing in vitro ubiquitination of p105 by mutated species of KPC1: FIG. 4A: In vitro translated and ^35S-labeled p105 was ubiquitinated by purified KPC1-Δ1-967-6xHIS (lanes 2-4) or KPC1-Δ1-974-6xHIS (lanes 5-7) in a reconstituted cell-free system. 4B) In vitro translated and ^355-labeled p105 was ubiquitinated by purified KPC1-Δ1-967-6xHIS (lanes 2,5,6), KPC1-Δ1-974-6xHIS (lane 3), KPC1-Δ967-1043-6xHIS (lane 4), WILVRLW-KPC1-Δ1-1039-6xHIS (lanes 7-8) or WILVRLW-KPC1-Δ1-1061-6xHIS (lanes 9-10) in a reconstituted cell-free system.
In order to assess if the interaction between two proteins leads to the conjugation of the substrate p105, ubiquitination reaction was performed in cell free system. The conjugation reaction was carried out in the presence of purified Ub, E1, E2, UbAl, ATP and KPC1—either wild-type or different mutant species. Samples were resolved via SDS-PAGE and the 35S-labeled p105 and its adducts were visualized using autoradiography. […] In addition, the shorter versions of KPC1 in which the 7 amino acids sequence were brought closer to RING domain, the active site of the enzyme were prepared. Both truncated KPC1 proteins that harbor the 7 amino acid sequence, WILVRLW-KPC1-Δ1-1039 (SEQ ID. No. 6) and WILVRLW-KPC1-Δ1-1061 (SEQ ID. No. 7), modified p105 (FIG. 4B, lanes 7-10).

[2] = tested on: glioblastoma U87-MG tumor; assay: Growth of U87-MG tumor xenografts overexpressing KPC1 species in nude mice; assay type: in vivo; details: overexpression in U87-MG cells injected to nude mice; growth rates and weights of xenografts, three weeks after inoculation
Description: FIG. 8A and FIG. 8B depict growth rates and weights of tumor xenografts grown in nude mice, and derived from U87-MG expressing V0 (control), Myc-KPC1 or Flag-WILVRLW-KPC1Δ1-1039 (SEQ ID NO: 6).
Growth rates and weights (FIG. 8B) of tumor xenografts grown in nude mice, and derived from U87-MG expressing VO (control), Myc-KPC1, and Flag-WILVRLW-KPC1Δ1-1039 (SEQ ID. No. 6).

p105 [3] = target: T1, p105; assay: Co-immunoprecipitation (Co-IP) of KPC1 species with p105-HA from transfected HEK293T cells; assay type: binding; parameters: HA; expressed in transfected cells; host or cells: HEK293T; details: anti-FLAG immunoprecipitation, anti-NF-κB1 western blot, listed as full-length KPC1
Description: FIG. 1B is a western blot showing the following: HEK293T cells were transfected with cDNAs coding for p105-HA (lanes 1-6), along with the different KPC1 species as following: W.T KPC1 (lane 1), KPC1Δ969-1314 (lane 2), KPC1Δ1-438 & 1039-1314 (lane 3), KPC1Δ1-967 (lane 4) and KPC1Δ1-1042 (lane 5). Lane 6 was transfected with an empty vector. KPC1 species were immunoprecipitated using immobilized FLAG antibodies, resolved by SDS-page, and NF-κB1 and KPC1 proteins were visualized by anti-NF-κB1 (FIG. 1B (upper)) and anti-FLAG (FIG. 1B (bottom)) antibodies, respectively. 10% of the total cell lysate was analyzed for the expression of p105-HA.
FIG. 2B is a western blot. HEK293T cells were transfected with cDNAs coding for p105-HA (lanes 1-7), along with different KPC1 species as following: WT KPC1 (lane 1), KPC1Δ1-967 (lane 2), KPC1Δ967-1043 (lane 3), KPC1Δ1-973 (lane 4), KPC1Δ1-1017 (lane 5) and KPC1ΔCC domain (lane 6). Lane 7 represents cells that were transfected with empty vector. KPC1 species were immunoprecipitated using immobilized FLAG antibodies, resolved by SDS-page. NF-κB1 and KPC1 proteins were visualized with anti-NF-κB1 (FIG. 2B (i)) and anti-FLAG (FIG. 2B (ii)) antibodies, respectively. 10% of the total cell lysate was analyzed for the expression of p105-HA. FIGS. 3A and 3B: FIG. 3A is a schematic representation of KPC1 species used in the experiment shown in FIG. 3B that was directed to evaluating the region of KPC1 that is responsible for the interaction with p105.
FIG. 3B is a western blot. HEK293T cells were transfected with cDNAs coding for p105-HA (lanes 1-12), along with different KPC1 species as following: KPC1-FLAG (lane 1), WILVRLW-KPC1 Δ 1-1253 (SEQ ID NO: 8) (lane 2), ILVRLW-KPC1 Δ 1-1253 (SEQ ID NO: 10) (lane 3), LVRLW-KPC1 Δ 1-1253 (SEQ ID NO: 11) (lane 4), VRLW-KPC1 Δ 1-1253 (lane 5) (SEQ ID NO: 12), RLW-KPC1 Δ 1-1253 (lane 6) SEQ ID NO:13), KPC1 Δ 1-1253 (lane 7), WILVRL-KPC1 Δ 1-1253 (lane 8) (SEQ ID NO: 14), WILVR-KPC1 Δ 1-1253 (SEQ ID NO: 15) (lane 9), WILV-KPC1 Δ 1-1253 (SEQ ID NO: 16) (lane 10), WIL-KPC1 Δ 1-1253 (SEQ ID NO: 17 (lane 11). Lane 12 represents cells that were transfected with empty vector. KPC1 species were immunoprecipitated using immobilized FLAG antibodies, resolved by SDS-page. NF-κB1 and KPC1 proteins were visualized by anti-NF-κB1 (FIG. 3B, (i, ii) and anti-FLAG (FIG. 3B, (iii) antibodies, respectively. 10% of the total cell lysate was analyzed for the expression of p105-HA (FIG. 3B, (ii)).
HEK293T cells were transiently transfected with the various KPC1 species along with p105-HA using the j etPEI reagent. 48 hours after transfection, the cells were harvested and lysed with RIPA buffer [150 mM NaCl, 0.5% sodium deoxycholate, 50 mM Tris-HCl (pH 8.0), 0.1% SDS, and 1% NP-40, supplemented with freshly added protease inhibitors mixture]. KPC1 species proteins were immunoprecipitated with immobilized anti-FLAG, with subsequent washing of the beads five times with RIPA buffer. The immunoprecipitated proteins were resolved by SDS-PAGE (10%, FIGS. 1A, 1B, 2A and 2B, with a gel gradient, of 4-20%; FIGS. 3A and 3B), and blotted onto nitrocellulose (FIGS. 1A, 1B, 2A and 2B) or PVDF (FIGS. 3A and 3B) membranes. p105 and KPC1 species were visualized using anti-NF-κB1 or anti-FLAG antibodies, respectively.
Identification of the region of KPC1 that is responsible for the interaction with p105. In order to identify the region of KPC1 that is responsible for the interaction with p105, several truncated segments of the DNA sequence of the KPC1 protein were cloned. The truncated segments were inserted into the pCAGGS expression vector to analyze their interaction with p105 by co-immunoprecipitation (Co-IP) from cells. HEK 293T cells were transfected with cDNAs coding for p105-HA, along with different fragments of KPC1 (FIG. 1A). Species of KPC1 were immunoprecipitated using an immobilized anti-Flag antibody. […]

| Molecule | ubiquitination of p105 (p105 [1]) | tumor growth [2] | interaction with p105 (Co-IP) (p105 [3]) |
| --- | --- | --- | --- |
| B1 | modified p105 | repressed glioblastoma U87-MG tumor growth | – |
| B2 | – | repressed glioblastoma U87-MG tumor growth | an interaction between p105 and the full-length KPC1 protein was observed |
